Test [1] has as its target TGF-beta receptors on mink lung epithelial cells (ATCC CCL-64) (mink). The experiment in a line: cell-based or functional assay.
For test [2], the target named is rat total IgG (Sigma-Aldrich) (rat). As to the kind of experiment: ELISA, rat total IgG on plate, 10 ng TGF-beta in 100 uL 0.1M Tris pH 7.4 (0 mM NaCl), 18 h 4 C, bound TGF-beta detected with TGF-beta 1 ELISA kit. (In general: ELISA stands for enzyme-linked immunosorbent assay.)
Test [3] shares this target. The experiment in a line: ELISA, rat total IgG on plate, 10 ng TGF-beta in 100 uL 10% glycerol in 0.1M Tris pH 7.4, 18 h 4 C, bound TGF-beta detected with TGF-beta 1 ELISA kit.
For test [4] the target is unchanged. As to the kind of experiment: ELISA, rat total IgG on plate, 10 ng TGF-beta in 100 uL 10% glycerol in PBS, 18 h 4 C, bound TGF-beta detected with TGF-beta 1 ELISA kit.
Test [5] shares this target. The experiment in a line: ELISA, rat total IgG on plate, 10 ng TGF-beta in 100 uL PBS, 18 h 4 C, bound TGF-beta detected with TGF-beta 1 ELISA kit.
For test [6], the target named is Mouse IgG1 (eBioscience) (mouse). As to the kind of experiment: Sephadex G-50 gel filtration of the TGF-beta/IgG mixture (1:10 molar), fractions assayed by TGF-beta ELISA.
Test [7] deals with Mouse IgG2a (eBioscience) (mouse). Described as above.
Test [8] has as its target total mouse IgG (Sigma-Aldrich) (mouse). The experiment in a line: 20 ng TGF-beta + 1 ug soluble total mouse IgG, PBS, 42 C, 5 min; Sepharose G-50 spin column eluate assayed by TGF-beta ELISA.
For test [9] the target is unchanged. The experiment in a line: 20 ng TGF-beta + 1 ug soluble total mouse IgG, 0.5x PBS with NaOH to pH 11, room temperature, 5 min; Sepharose G-50 spin column eluate assayed by TGF-beta ELISA.
The target is the same in test [10]. As to the kind of experiment: 20 ng TGF-beta + 1 ug soluble total mouse IgG, PBS, room temperature, 5 min; Sepharose G-50 spin column eluate assayed by TGF-beta ELISA.

This passage reports Cell Viability (OD450/Control OD450), Net Absorbance (450) (absorbance (450)) and percent of TGF-beta eluting in the IgG-bound fraction results from patent US20140170171A1.

In [1], Dissociated (Treated) TIGG returned a Cell Viability (OD450/Control OD450) at 0.25 pg/mL TIGG (OD450/Control OD450) of 0.621, a Cell Viability (OD450/Control OD450) at 2.5 pg/mL TIGG (OD450/Control OD450) of 0.645, a Cell Viability (OD450/Control OD450) at 25 pg/mL TIGG (OD450/Control OD450) of 0.651 and a Cell Viability (OD450/Control OD450) at 250 pg/mL TIGG (OD450/Control OD450) of 0.651. The Cell Viability (OD450/Control OD450) at 2500 pg/mL TIGG (OD450/Control OD450) in test [1] was found to be 0.616.
In the case of “TGF-beta (Leinco Technologies, St. Louis, Mo.) (ligand)”, the Net Absorbance (450) (absorbance (450)) came to 1.02 in test [2], 0.7 in test [3], 0 in test [4] and 0.18 in test [5].
Turning to “Transforming growth factor-beta 1 (Peprotech) (from UniProt P01137 279-390) (ligand)”, the percent of TGF-beta eluting in the IgG-bound fraction in test [6] and in test [7] was 40 to 50% each time. Moreover, the values for the Net Absorbance (450) (absorbance (450)) in [8], in test [9] and in [10] were 0.117, 0.558 and 0.193, respectively.
On to “purified mouse TIGG (Transforming Growth Factor-beta-bound IgG), intact”, for which, in [1], the Cell Viability (OD450/Control OD450) at 0.25 pg/mL TIGG (OD450/Control OD450) came to 0.965, the Cell Viability (OD450/Control OD450) at 2.5 pg/mL TIGG (OD450/Control OD450) came out at 0.924, the Cell Viability (OD450/Control OD450) at 25 pg/mL TIGG (OD450/Control OD450) amounted to 0.897 and the Cell Viability (OD450/Control OD450) at 250 pg/mL TIGG (OD450/Control OD450) was 0.817. The same substance displayed a Cell Viability (OD450/Control OD450) at 2500 pg/mL TIGG (OD450/Control OD450) in [1] of 0.678.
